Test results taken from the nanobody polyreactivity screen of Harvey et al. (2022).

Assay: yeast display, Sf9 membrane polyspecificity reagent, FACS + sequencing; frameworks hold sequencing errors
Outline: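 Nanobodies from a synthetic yeast display library (Saccharomyces cerevisiae BJ5465), induced 36–48 hours with galactose, were stained 1 hour at 4 °C with 10% biotinylated, detergent-solubilized Sf9 membrane reagent, enriched on streptavidin microbeads, then FACS-sorted. Anti-HA (expression) and streptavidin (reagent binding) fluorescence set low and high (top ~1%) gates. Polyreactivity labels come from the gate of origin. Genes were colony-PCR amplified, MiSeq 2 × 250 sequenced and filtered by CDR length.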

Sequence | polyreactivity (PSR sort gate)
HDQLVESGGGLVEAGGSLRLSCAASGITFKGYAMGWYRPAPGKERELVAAITSGGSTKYADSVKGRFTSSRDNAKNTVYLQMNSLKPEDTAVYYCAAAVVNYGWWTYGYYGFGYWGQGTQVTVSS | high polyreactivity
HFQLVEAGGGLVQAGGSLSLSCADSGRTYSHYAMGWYSQAPAQVRELVAGISSGSRTNYADSVKGRFTISRDNAKNTVYLQMNSLKPEDTAFYYCAARTNYLKGGYWGQGTQVTVSS | high polyreactivity
HGQLVDSGGGLVQAGGSLRLICAASGYTYYDYAMGRYREAPGKEMELVADISTSDGSTFYADSVKGRFTISRDNAKNTVYLQMNSLKPEDTAVYYCNTDGSLGLYDWFWPSNNDYWGQGTQVTVSS | low polyreactivity
HLQLEESGVGLVQAGGSLRLSCAASGSTFTFNAMGWYRQAPAKSRELVAAIRWNGESTYYADSVKGRFSISRDNAKNTVYIQMNSLNPEDTAVYYCAATRLLSKSGDRYYYWGQGTQVTVSS | low polyreactivity
HVHLQESGGGLVQAGGSLRLSCAASGSINDETYMAWYRQAPGKERELVATIDSGSTTNYADSVKGRITISRDNAKNTVYLQMNSLKPEDTAVYYCAAADSHIDYFDYWGQGSQVTVSS | low polyreactivity
HVHLVESGGGLVQAGGRLRLTCAASGRTFQKYAMGWYREAPRKERELVAAITTSGGSTYYADSVKGRFTISRDYAKYTVYLQMNSLKPEDTAVYYCNKAYAYAGHDYDWGQGTKVTVSS | high polyreactivity
HVLLVESGGGLVQAGGSLLLSCAASGSPFYTNAMVGFRKAPGKEREVVASITDGGDSTQYADSVKGRFTISRDYAKNTVYLQMNSLKPEDTAVYYCAVDYHYFQEYDTWGQGTQVTVSS | low polyreactivity
HVQLEESGGGLVQAGGSLRLTCAASGSIFYAYAMGWYIPATGKERELVAVISNGGGSTYYADSVKGRFTISRDNSKNSVYLQMNSVKPEDTAVYFCAAVLAESVYYSDYDYWGQGTQVTVSS | low polyreactivity
HVQLEESGRGLVQAGGSLRLSCAASGRTFTSNAIGWYRQAPGKERELVAVITSGGSTNYADSVKGRFTISRDNAMNTVYLQMNSLKPEDTAVYYCNARSGRGQAYGYWGQGTQVTVSS | high polyreactivity
HVQLQESAGGLVQAGASLRLSCAPSGNISYSRNMGWYRQAPGKERELVAAIDRGAITYYADSVKGRFTISRDNEKNTVYLQIFSLKPEDTAVYYCAAVYHDRWDHRYWGQGTQVTVSS | high polyreactivity
HVQLQESGGGLVQAGGSLRLICAASGNIVDDDIMGWYRQAPGKEREIVASITDGGSTNYADSLKGRFTISRDNAKNTVYQQMNILIREVTAVYYCAAIAYPDIPTYFVYDSDSFYWGQGTQETVSS | high polyreactivity
HVQLQESGGGLVQAGGSLRLSCAASGNISYSRNMGWYRQAPGKERELVAAIDRGAITYYADSVKGRFTISRDNAKNTVYLQIYSLKPEDTAVYYCAAEYHDRWDHRYWGQGTQVTVSS | high polyreactivity
HVQLQESGGGLVQAGGSMRLSCAESGSISELRPMGLYRKAPGKERELVAGISTGGSTNYADSVKGRFTISLDNAKNTVYLQMNSLKPEYTAVYFCAAASYCEGTYDYWGQGTQVTVRS | high polyreactivity
HVQLQESGGGLVQPGGSLRLSCAASGNISFSRNMGWYRQAPGKERELVAAIDRGAITYYGDSVKGRFTISRDNAKNTVYLQIYSLKPEDTAVYYCAAEYHDGWDHRYWGQGTQVTVSS | high polyreactivity
HVQLVESGGGFVQAGGSLRLICAASVRNFDVYSMGWYRQAPGKERELVAAISRRGGSTYYADSVKGRFTISRDNAKNTVYLQMNRLKPEDTAVYYCAAQSRQAYMTYGYWGLGTQVTVSS | high polyreactivity
HVQLVESGGGIVQAGGILRLSCAASGRIFSVYTMGWYRKAPGQERELVAAISSGASTNYADSVKGRFTISRDNAKNTVYLQMNSLKPEDTAVYYCAKEYGIYTDTPYYYWGQGTQVTVSS | low polyreactivity
HVQLVESGGGLFQAGGSLRLCCAASGSISGLYAMGWYRQAPGKERELVAAITLRDGTTSYADSVKGRFTISRDNAKITVYLQMNSLKPEDTDVYYCAAVDRDSKCSVPTLDHWGQGTQVTVSS | low polyreactivity
HVQLVESGGGLGQAGGSLRLSCAASGSIFYVNAIGWYRQAPGKERELVADITWSGGSTYYADSVKGRFTISRDHAQTTVYLQMNSLKPEDTAVYYCAAKVKHWYYPYYYWGQGTQVTVSS | low polyreactivity
HVQLVESGGGLVQAGGILRLSFAASGFIFCYYTMGWYRQATGKERELVAAINSGGSTNYADSVKGRFTISRDNAKNTVYLQMNSLKPEDTAVYYCAALVWYSGELFYYWGQGTQVTVSS | low polyreactivity
HVQLVESGGGLVQAGGRLRLSCAASGGTFWHYAMGWYRKAPGKERELFAAIRWRGVRTYYADSVKGRFTISRDNAKNTVYLQMNSLKPEDTAVYYCASTTWRSGRYNYWGQGTQVTVSS | high polyreactivity
HVQLVESGGGLVQAGGSLRISCAASGRTLEQYAMGWYRQAPGKERELVAAINKSGARTYYADSVKGRFTISRDNAKNTVYLQMNSLKPEDTAVYYCNTVGPCYLFDYWGQGTQVTVSS | high polyreactivity
HVQLVESGGGLVQAGGSLRLSCAASARIFVTYAMGWYREAPGKETELVAAISSRGGRTNYADSVKGRFTISRDNAQNTVYLQMNSLKPEYTAVYYFAARYWYIYNYDYWGQGTQVTVSS | high polyreactivity

Sequence | polyreactivity (PSR sort gate)
HVQLVESGGGLVQAGGSLRLSCAASGFTFPLYALGWYRPAPGKEREVVAAIRSSGGSTYYADSVKGRFTISRDKAKNTVNLQMNSLKPEDTAVSYCAKVRSTRRLDTYYYWGQGTQVTVSS | high polyreactivity
HVQLVESGGGLVQAGGSLRLSCAASGFTFYVYAMGWYRQAPGTERELVAAISRGGSTYYADSVKGRFTISRDNAKNTVYLQMNSLKPEDTAVYYCNRVPSVSSSKVRYSNGFDYWGQGTQVTVSS | low polyreactivity
HVQLVESGGGLVQAGGSLRLSCAASGGTFGRYARGWYRQAPGKERELVAAISSGGSTNYADSVKGRFTISRDNAKYTVYLLMNSLKPEDTAVYYCAADGPSGVRQYDYWGQGTQVTVSS | low polyreactivity
HVQLVESGGGLVQAGGSLRLSCAASGIIFRYKALGWYREAPGKERELVAAISVSGGSTYYADSVKGRFTISRDNAKNTVDLQMNSLKPEDTAVDYCAALLYRYGVHQAEHDYWGQGTQVTVSS | high polyreactivity
HVQLVESGGGLVQAGGSLRLSCAASGLTYPRYTMGWYRQAPGKESELVAAISSSTGTTNYADSVKGRFTISRDNAKINVYLQMYSLKPEDTAVYYCAAGGSLYAYGYRSRYGYWGQGTQVTVSS | low polyreactivity
HVQLVESGGGLVQAGGSLRLSCAASGNICYGYAMGGYRQAPGKERELVARINWSGSRTYYADSVKGRFTISRDNAKNTVYLQMNSLKPDDTAVYYCNTSTSRVPGNGDYWGQGTQVTVSS | high polyreactivity
HVQLVESGGGLVQAGGSLRLSCAASGNTFTEYAMGWYRQAPGKERELVASITGSGGSTYADSVRGRFTISRDNAKNTVYLQMNSLKPEDTAVYYCAKDPRYEYVGSEYGYWGQGTQVTVSS | low polyreactivity
HVQLVESGGGLVQAGGSLRLSCAASGRIFGYYAIGWYRQATRKERELVAAITINGRRTYYADSVKGRFTISRDNAKNTVYLQMKSLKPEDTAVYLCTATSRYNRLGYWGQGTQVSVSS | high polyreactivity
HVQLVESGGGLVQAGGSLRLSCAASGRIFRKYAMGWYRQAPGKERELVAVITGSAGSTYYADSVKGRFTISRDNAKNTVYLQMNSLKPEDTAVYYCAKVSTSWDYGIYPFDEGYYWGQGTKVTVSS | low polyreactivity
HVQLVESGGGLVQAGGSLRLSCAASGRISDRYAMGWSRQAPGKEREFVAAISWSGASTYYADSVKGRFTISRDNAKNTVYLQMNSLKAEDTAVYYCAARRRHKYDYWGQGTQVTVSS | high polyreactivity
HVQLVESGGGLVQAGGSLRLSCAASGRNYYTYTMGRSRQAPGKEKQLVATITVGTRTNYADSVKGRFTISRDNAQNTVYLQMNSLKRVDTAVYYCNAEWSSKRFTGDDYWGQGTQVTVSS | low polyreactivity
HVQLVESGGGLVQAGGSLRLSCAASGRTFGIYAMGWYRKAPGKERELVAAITGRGGSTHYADSVKGRFTISRDNAKNTVYLQMNSLKPEDTAVYYCAADYRYNRGITSNKDYDYWGQGTQVTVSS | low polyreactivity
HVQLVESGGGLVQAGGSLRLSCAASGRTFIYNAMGWYRQAPGKEREFVAANTWSGATTRYADSVKGRFTISRDNAKNTVYLEMNSLKPEDTAVYYCAKGGFYYYGWRSSMDYWGQGTQVTVSS | high polyreactivity
HVQLVESGGGLVQAGGSLRLSCAASGRTFRLYAMGRYRQATGKEMELVARIRWRGGTTYFADSVKGRFTISRDNAKNTVYLQMNRLKPEDTAVYYCAARAYPTWRTYYYCGQGTQVTVSS | high polyreactivity
HVQLVESGGGLVQAGGSLRLSCAASGSIFDSYVMGWYRQAPGTERELVAAITYSGGSTYADSVKGRFTISRDNAKNTVYLQMNSLKPEDTAVYYCAAASYFYLYLLEDYWGQGTQVTVSS | low polyreactivity
HVQLVESGGGLVQAGGSLRLSCAASGSIFVLNAMGWYRQAPGKERELVAAITNVGSTYYADSVKGRFTISRDNAKNTVYLQMNSLKPEDTAVYYCNADPGEVLVGYDYWGQGTQVTVSS | low polyreactivity
HVQLVESGGGLVQAGGSLRLSCAASGSIFYGNTMGWYRQAPGKEREFVAAINKSDDSTYYADSVKGRFTISRDNAKNTVYLQMNSLKPEDTAVYYCWGPGTQVTVSS | low polyreactivity
HVQLVESGGGLVQAGGSLRLSCAASGSIYALYDLGRYRQAPGKERELVASITGSGGNTYYADSVKGRFTISRDNAKNTVYLQMNSLKPEDTAVYYCAADFRYAGYSYDYWGQGTQVSVSS | low polyreactivity
HVQLVESGGGLVQAGGSLRLSCAASGSTCRYYARGWYRQAPGKERELGAAISGRGARTYYADSVKGRFTISRDNAKNTVYLQMNSLKPEDTAVYYCAAVGYRYRHSRYYWGQGTQVTVSS | high polyreactivity
HVQLVESGGGLVQAGGSLRLSCAASGSTFAGNAMGWYRQAPGKERELVAAITFSGGRTDYADSVKGRFTISRDNAKNTVYLQMNSLKPEDTAVYYCAAPADDTVHYQNYYWGQGTQVTVSS | low polyreactivity
HVQLVESGGGLVQAGGSLRLSCAASGSTFGRYVMGWHRQAPGKERELVAAISKNAGSTYYADSVKGRFTISRDNAKNTVYLKMASLKPEDTAVYYCAADWRTKGYDSLGQGTQVTVSS | high polyreactivity
